This data set relates to Escherichia coli TOP10. Briefly: shrunken log2 fold change of peptide-encoding DNA abundance (4.5 h post-induction vs induction); higher = less antimicrobial activity (less host growth inhibition). The settings on record: time post-induction: 4.5 h; library: site-saturation at positions 5, 18, 19, 20.

125 sequences from the supplement of paper PMC9112550, “Optimization of the antimicrobial peptide Bac7 by deep mutational scanning” (BMC Biology, 2022) can be followed below.
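Further: peptides expressed intracellularly from a pBAD plasmid library in pooled LB shake-flask culture, induced with 0.3% L-arabinose, DNA abundance read by NGS, three biological replicates, DESeq2 with apeglm shrinkage.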

As for RRIRNRPPRLPRPRPRPPGYPRP, the “shrunken log2 fold change” value was determined as 0.39.
For RRIRVRPPRLPRPRPRPRMNPRP the value was -0.0411; for RRIRTRPPRLPRPRPRPCFVPRP, -0.454.
On to RRIRPRPPRLPRPRPRPDTNPRP, for which the “shrunken log2 fold change” value is -0.239.
Regarding RRIRIRPPRLPRPRPRPHYDPRP, the “shrunken log2 fold change” value was -0.801.
Consider RRIRGRPPRLPRPRPRPQAWPRP, for which the “shrunken log2 fold change” value turned out to be 0.69.
For RRIRIRPPRLPRPRPRPFYIPRP the value was -0.308; for RRIRMRPPRLPRPRPRPKNIPRP, -0.232; for RRIRKRPPRLPRPRPRPLCQPRP, 0.206.
For RRIRKRPPRLPRPRPRPTLTPRP the value was 0.283; for RRIRKRPPRLPRPRPRPHMHPRP, -0.186; for RRIRLRPPRLPRPRPRPCPAPRP, -0.00808.
In the case of RRIRPRPPRLPRPRPRPIANPRP it was -0.12; in that of RRIRVRPPRLPRPRPRPPIMPRP, -0.486.
Take RRIRERPPRLPRPRPRPSEGPRP: the “shrunken log2 fold change” value is 0.00843.
For RRIRVRPPRLPRPRPRPCEHPRP the value was -0.0331; for RRIRFRPPRLPRPRPRPPSIPRP, -0.0341; for RRIRQRPPRLPRPRPRPGHEPRP, 0.104.
Consider RRIRVRPPRLPRPRPRPAPLPRP, for which the “shrunken log2 fold change” value was 0.255.
In the case of RRIRRRPPRLPRPRPRPWSDPRP, the “shrunken log2 fold change” value is -0.107.
Regarding RRIRWRPPRLPRPRPRPKAYPRP, the “shrunken log2 fold change” value is -0.12.
In the case of RRIRFRPPRLPRPRPRPRRFPRP it was 0.0577; in that of RRIRQRPPRLPRPRPRPCMFPRP, -0.214.
In the case of RRIRARPPRLPRPRPRPTATPRP it was 1.2.
In the case of RRIRPRPPRLPRPRPRPGVDPRP it was 0.0426; in that of RRIRMRPPRLPRPRPRPLRAPRP, 2.97; in that of RRIRERPPRLPRPRPRPQKSPRP, -0.202.
Turning to RRIRWRPPRLPRPRPRPEENPRP, the “shrunken log2 fold change” value is -0.0122.
In the case of RRIRDRPPRLPRPRPRPDNCPRP it was -0.000924; in that of RRIRYRPPRLPRPRPRPSYCPRP, -0.407.
For the sequence RRIRTRPPRLPRPRPRPDIDPRP, the “shrunken log2 fold change” value was determined as 0.0151.
In the case of RRIRVRPPRLPRPRPRPVFIPRP it was -0.144; in that of RRIRQRPPRLPRPRPRPIPPPRP, 0.0581; in that of RRIRLRPPRLPRPRPRPVQWPRP, 0.288.
For the sequence RRIRDRPPRLPRPRPRPMQKPRP, the “shrunken log2 fold change” value was 0.0229.
As to RRIRIRPPRLPRPRPRPPQFPRP, the “shrunken log2 fold change” value was -0.195.
For the sequence RRIRDRPPRLPRPRPRPQHVPRP, the “shrunken log2 fold change” value came to 0.0427.
For RRIRGRPPRLPRPRPRPFYKPRP the value was -0.0686; for RRIRLRPPRLPRPRPRPKKIPRP, -0.104.
Regarding RRIRGRPPRLPRPRPRPSDKPRP, the “shrunken log2 fold change” value was determined as 0.0485.
In the case of RRIRMRPPRLPRPRPRPSALPRP, the “shrunken log2 fold change” value turned out to be 0.105.
As to RRIRPRPPRLPRPRPRPWNHPRP, the “shrunken log2 fold change” value is -0.485.
For RRIRMRPPRLPRPRPRPVSEPRP the value was -0.38; for RRIRYRPPRLPRPRPRPVSFPRP, -0.717.
In the case of RRIRPRPPRLPRPRPRPHFAPRP, the “shrunken log2 fold change” value amounted to 0.284.
In the case of RRIRWRPPRLPRPRPRPHDCPRP it was -0.00141; in that of RRIRLRPPRLPRPRPRPLAVPRP, 0.139; in that of RRIRIRPPRLPRPRPRPELKPRP, 0.224.
In the case of RRIRQRPPRLPRPRPRPETCPRP it was 0.0408.
For RRIRTRPPRLPRPRPRPPKIPRP the value was -0.112.
Consider RRIRGRPPRLPRPRPRPMRHPRP, for which the “shrunken log2 fold change” value was 0.559.
In the case of RRIRRRPPRLPRPRPRPQEDPRP, the “shrunken log2 fold change” value turned out to be 0.108.
In the case of RRIRMRPPRLPRPRPRPRVVPRP it was 0.246; in that of RRIRIRPPRLPRPRPRPPNKPRP, -0.36.
In the case of RRIRFRPPRLPRPRPRPHKFPRP it was -0.5; in that of RRIRWRPPRLPRPRPRPNWYPRP, -0.372; in that of RRIRKRPPRLPRPRPRPIMAPRP, 0.0791.
In the case of RRIRYRPPRLPRPRPRPWSCPRP, the “shrunken log2 fold change” value was -0.171.
For RRIRSRPPRLPRPRPRPLYSPRP, the “shrunken log2 fold change” value is -0.442.
On to RRIRFRPPRLPRPRPRPTFTPRP, for which the “shrunken log2 fold change” value is -0.157.
Turning to RRIRYRPPRLPRPRPRPGMTPRP, the “shrunken log2 fold change” value is 0.0238.
In the case of RRIRGRPPRLPRPRPRPATTPRP it was 0.871; in that of RRIRMRPPRLPRPRPRPPCYPRP, -0.0907; in that of RRIRWRPPRLPRPRPRPNFVPRP, 0.292.
For RRIRDRPPRLPRPRPRPKFIPRP the value was -0.14; for RRIRTRPPRLPRPRPRPSHYPRP, -1.32.
In the case of RRIRLRPPRLPRPRPRPMTAPRP it was 0.0114.
As to RRIRCRPPRLPRPRPRPLQPPRP, the “shrunken log2 fold change” value was -0.0133.
For RRIRYRPPRLPRPRPRPSWVPRP the value was -0.597.
For RRIRVRPPRLPRPRPRPFRTPRP the value was -0.0962; for RRIRCRPPRLPRPRPRPRQSPRP, 0.139.
Regarding RRIRPRPPRLPRPRPRPAKIPRP, the “shrunken log2 fold change” value turned out to be 0.0125.
For RRIRCRPPRLPRPRPRPHMLPRP the value was -0.431; for RRIRHRPPRLPRPRPRPLGAPRP, -0.0242; for RRIRRRPPRLPRPRPRPHTIPRP, 0.141.
For RRIRYRPPRLPRPRPRPYKRPRP the value was -2.31; for RRIRDRPPRLPRPRPRPNKYPRP, -0.828.
With RRIRKRPPRLPRPRPRPSLSPRP, the “shrunken log2 fold change” value came to 0.549.
In the case of RRIRGRPPRLPRPRPRPATMPRP it was 0.44; in that of RRIRNRPPRLPRPRPRPYRHPRP, -0.01.
Turning to RRIRRRPPRLPRPRPRPWAYPRP, the “shrunken log2 fold change” value was -0.0717.
In the case of RRIRGRPPRLPRPRPRPGEHPRP it was 0.587; in that of RRIRVRPPRLPRPRPRPCVTPRP, -0.0293.
For RRIRDRPPRLPRPRPRPRFAPRP the value was 0.327; for RRIRWRPPRLPRPRPRPFQYPRP, -0.199.
For RRIRCRPPRLPRPRPRPTLHPRP the value was -0.0488; for RRIRPRPPRLPRPRPRPVTMPRP, -0.297; for RRIRCRPPRLPRPRPRPQCAPRP, 0.166.
Turning to RRIRTRPPRLPRPRPRPEHCPRP, the “shrunken log2 fold change” value was -0.0755.
Regarding RRIRWRPPRLPRPRPRPNMWPRP, the “shrunken log2 fold change” value came out at 0.0493.
In the case of RRIRKRPPRLPRPRPRPDHCPRP it was 0.00904; in that of RRIRHRPPRLPRPRPRPFSNPRP, -1.09; in that of RRIRYRPPRLPRPRPRPDFYPRP, -1.15.
As for RRIRSRPPRLPRPRPRPLMIPRP, the “shrunken log2 fold change” value is -0.764.
In the case of RRIRPRPPRLPRPRPRPMPEPRP it was -0.0242; in that of RRIRGRPPRLPRPRPRPHLEPRP, 0.381.
Take RRIRDRPPRLPRPRPRPHKNPRP: the “shrunken log2 fold change” value is -0.296.
In the case of RRIRTRPPRLPRPRPRPAKHPRP it was 0.0349; in that of RRIRLRPPRLPRPRPRPTPMPRP, 0.143.
Regarding RRIRSRPPRLPRPRPRPYPDPRP, the “shrunken log2 fold change” value is -0.172.
In the case of RRIRNRPPRLPRPRPRPCVLPRP it was -0.202; in that of RRIRTRPPRLPRPRPRPKNAPRP, 0.0264; in that of RRIRLRPPRLPRPRPRPPPPPRP, 1.55.
For RRIRDRPPRLPRPRPRPIGWPRP the value was -0.0185; for RRIRWRPPRLPRPRPRPQWCPRP, -0.0974; for RRIRMRPPRLPRPRPRPIQWPRP, 0.144.
As for RRIRHRPPRLPRPRPRPQEYPRP, the “shrunken log2 fold change” value was -0.128.
In the case of RRIRGRPPRLPRPRPRPFNFPRP it was 0.0755; in that of RRIRCRPPRLPRPRPRPLQDPRP, 0.0354.
As to RRIRMRPPRLPRPRPRPQPAPRP, the “shrunken log2 fold change” value was 1.55.
For RRIRLRPPRLPRPRPRPSKCPRP, the “shrunken log2 fold change” value is -0.0487.
RRIRERPPRLPRPRPRPITFPRP: the “shrunken log2 fold change” value was -0.338.
For RRIRYRPPRLPRPRPRPYYDPRP, the “shrunken log2 fold change” value was -0.15.
Turning to RRIRARPPRLPRPRPRPMTDPRP, the “shrunken log2 fold change” value is -0.414.
As for RRIRSRPPRLPRPRPRPCFEPRP, the “shrunken log2 fold change” value is -0.0192.
In the case of RRIRKRPPRLPRPRPRPNADPRP it was 0.0182; in that of RRIRSRPPRLPRPRPRPAERPRP, 0.0522; in that of RRIRWRPPRLPRPRPRPPTSPRP, 0.291.
In the case of RRIRARPPRLPRPRPRPCNHPRP it was -0.177; in that of RRIRTRPPRLPRPRPRPQRDPRP, 0.347.
For RRIRPRPPRLPRPRPRPVLMPRP the value was -0.161; for RRIRHRPPRLPRPRPRPYMFPRP, -0.319; for RRIRYRPPRLPRPRPRPLEPPRP, -0.124.
On to RRIRQRPPRLPRPRPRPNSIPRP, for which the “shrunken log2 fold change” value was -0.21.
As to RRIRGRPPRLPRPRPRPQDEPRP, the “shrunken log2 fold change” value amounted to 0.111.
